{"source": "patent US20060134087A1", "about": "“ITI-D1 Kunitz domain mutants as hNE inhibitors” (Dyax Corp., priority 1988, published 2006)", "molecular_target": "T1, hNE (Homo sapiens, UniProt P08246)", "T1 sequence (P08246 30-267)": "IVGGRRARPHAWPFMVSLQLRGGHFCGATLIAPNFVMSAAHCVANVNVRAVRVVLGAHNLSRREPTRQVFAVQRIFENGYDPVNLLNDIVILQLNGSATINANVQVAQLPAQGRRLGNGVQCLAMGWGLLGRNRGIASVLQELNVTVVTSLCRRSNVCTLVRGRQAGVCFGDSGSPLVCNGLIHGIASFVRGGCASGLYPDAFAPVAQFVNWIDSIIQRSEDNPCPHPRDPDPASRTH", "assay": "Resistance to oxidative inactivation by Chloramine-T, residual hNE-inhibition activity", "assay_type": "physicochemical", "details": "20 minutes at RT", "experimental": "At the end of the incubation period, the oxidation reactions were quenched by adding methionine to a final concentration of 4 mM. After a further 10 minute incubation, the quenched reactions were diluted and assayed for residual inhibitor activity in our standard hNE-inhibition assay.\nInhibitors were incubated in the presence of Chloramine-T at the molar ratios indicated for 20 minutes at RT. Oxidation reactions were quenched by adding methionine to a final concentration of 4 mM. Residual hNE-inhibition activity remaining in the quenched reactions is shown as a percentage of the activity observed with no added oxidant."}
{"molecule": "Secretory Leucocyte Protease Inhibitor (protein) SGKSFKAGVCPPKKSAQCLRYKKPECQSDWQCPGKKRCCPDTCGIKCLDPVDTPNPTRRKPGKCPVTYGQCLMLNPPNFCEMDGQCKRDLKCCMGMCGKSCVSPVKA", "values": [{"measurement": "Percent Residual hNE-Inhibitory Activity", "setting": "Molar Ratio CHL-T:Inhibitor 0", "result": 100, "unit": "%"}, {"measurement": "Percent Residual hNE-Inhibitory Activity", "setting": "Molar Ratio CHL-T:Inhibitor 0.29", "result": 93, "unit": "%"}, {"measurement": "Percent Residual hNE-Inhibitory Activity", "setting": "Molar Ratio CHL-T:Inhibitor 1.2", "result": 65, "unit": "%"}, {"measurement": "Percent Residual hNE-Inhibitory Activity", "setting": "Molar Ratio CHL-T:Inhibitor 2.4", "result": 48, "unit": "%"}, {"measurement": "Percent Residual hNE-Inhibitory Activity", "setting": "Molar Ratio CHL-T:Inhibitor 5.9", "result": 18, "unit": "%"}, {"measurement": "Percent Residual hNE-Inhibitory Activity", "setting": "Molar Ratio CHL-T:Inhibitor 12.", "result": 15, "unit": "%"}, {"measurement": "Percent Residual hNE-Inhibitory Activity", "setting": "Molar Ratio CHL-T:Inhibitor .59", "result": 82, "unit": "%"}, {"measurement": "Percent Residual hNE-Inhibitory Activity", "setting": "Molar Ratio CHL-T:Inhibitor .88", "result": 73, "unit": "%"}]}
